Data as given in patent US20190300577A1 (BETH ISRAEL DEACONESS MEDICAL CENTER, published 2019).
Ends that are not written are not given here.

Experiments:
[1] = biological target: T1, recombinant human P-selectin Fc chimera (human, UniProt P16109 42-771); test: Biacore; biotinylated glycopeptide captured on a streptavidin chip, hP-sel-Ig flowed over (trace shown at 20 µg/ml) [lower left panel 'hP-sel-Ig (20 µg/ml)' (D in the legend]
T1 construct: also called P-sel-Ig; recombinant Ig chimera of P-selectin
Description: (§1) GSnP-6 bound to E- and L-selectin with even lower apparent affinity.

[2] = biological target: T2, recombinant mouse P-selectin Fc chimera (mouse, UniProt Q01102 42-709); test: Biacore; biotinylated glycopeptide captured on a streptavidin chip, mP-sel-Ig flowed over (trace shown at 20 µg/ml) [lower middle panel 'mP-sel-Ig (20 µg/ml)' (E in the legend]
T2 construct: also called murine P-selectin; P-sel-Ig; not shown: Ig (Fc) part of the chimera
T2 sequence (looked up): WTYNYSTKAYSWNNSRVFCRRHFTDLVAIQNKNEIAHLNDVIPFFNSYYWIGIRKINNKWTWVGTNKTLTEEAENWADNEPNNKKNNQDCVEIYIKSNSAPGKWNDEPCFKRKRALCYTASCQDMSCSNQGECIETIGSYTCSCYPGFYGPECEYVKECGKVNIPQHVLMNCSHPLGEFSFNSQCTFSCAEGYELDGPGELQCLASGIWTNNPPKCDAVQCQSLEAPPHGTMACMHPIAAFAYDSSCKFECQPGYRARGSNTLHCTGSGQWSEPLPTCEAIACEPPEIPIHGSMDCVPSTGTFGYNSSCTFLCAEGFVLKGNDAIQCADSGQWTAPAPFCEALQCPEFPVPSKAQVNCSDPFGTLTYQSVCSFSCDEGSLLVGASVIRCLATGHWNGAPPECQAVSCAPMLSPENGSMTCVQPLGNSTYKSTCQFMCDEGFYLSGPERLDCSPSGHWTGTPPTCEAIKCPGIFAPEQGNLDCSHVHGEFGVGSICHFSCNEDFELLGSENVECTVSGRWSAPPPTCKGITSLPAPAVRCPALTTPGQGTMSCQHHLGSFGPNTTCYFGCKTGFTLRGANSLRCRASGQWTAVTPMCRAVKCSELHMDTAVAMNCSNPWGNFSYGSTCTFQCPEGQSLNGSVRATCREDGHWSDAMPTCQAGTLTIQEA
Description: as §1

T1 sequence (P16109 42-771, change not shown): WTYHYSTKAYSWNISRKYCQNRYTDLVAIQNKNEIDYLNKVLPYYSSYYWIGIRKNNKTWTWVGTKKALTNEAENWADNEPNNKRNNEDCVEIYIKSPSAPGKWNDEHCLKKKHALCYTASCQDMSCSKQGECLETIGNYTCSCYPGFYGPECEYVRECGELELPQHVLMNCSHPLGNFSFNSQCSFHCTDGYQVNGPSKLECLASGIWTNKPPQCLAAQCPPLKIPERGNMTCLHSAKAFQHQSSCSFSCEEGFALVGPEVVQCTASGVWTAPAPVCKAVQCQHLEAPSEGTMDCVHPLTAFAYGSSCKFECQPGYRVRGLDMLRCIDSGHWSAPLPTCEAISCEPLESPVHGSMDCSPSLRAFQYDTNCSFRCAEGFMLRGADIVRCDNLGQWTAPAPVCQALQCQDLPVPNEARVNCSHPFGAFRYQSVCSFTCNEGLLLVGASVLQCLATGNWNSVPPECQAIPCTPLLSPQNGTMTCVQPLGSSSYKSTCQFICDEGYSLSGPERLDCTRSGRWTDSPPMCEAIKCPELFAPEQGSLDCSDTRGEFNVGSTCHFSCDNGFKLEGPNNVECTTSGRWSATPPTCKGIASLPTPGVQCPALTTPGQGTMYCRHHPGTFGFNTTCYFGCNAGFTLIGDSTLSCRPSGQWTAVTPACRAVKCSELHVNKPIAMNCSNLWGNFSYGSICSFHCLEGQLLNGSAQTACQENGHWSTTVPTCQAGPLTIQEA

Kd [1]: ~9 nM
Kd [2]: ~128 nM
Binder: EYEYLDYDFLPET(Core‑2 O‑glycan hexasaccharide with sLe^x)EPPE (peptide, UniProt Q14242 45-61, looked up, also: tyrosine O-sulfate, positions not given here, Synthetic glycosulfopeptide) [GSP-6]
